B1: GtaB (Bacillus subtilis subsp. subtilis str. 168) (protein)
chain: MKKVRKAIIPAAGLGTRFLPATKAMPKEMLPIVDKPTIQYIIEEAVEAGIEDIIIVTGKSKRAIEDHFDYSPELERNLEEKGKTELLEKVKKASNLADIHYIRQKEPKGLGHAVWCARNFIGDEPFAVLLGDDIVQAETPGLRQLMDEYEKTLSSIIGVQQVPEEETHRYGIIDPLTSEGRRYQVKNFVEKPPKGTAPSNLAILGRYVFTPEIFMYLEEQQVGAGGEIQLTDAIQKLNEIQRVFAYDFEGKRYDVGEKLGFITTTLEFAMQDKELRDQLVPFMEGLLNKEEI
notes: full-length, C-terminal His-tag cleaved off with thrombin (pET28b-gtaB-cHis), E. coli BL21(DE3)
B2: YngB (Bacillus subtilis subsp. subtilis str. 168) (protein)
chain: MRKKVRKAVIPAAGLGTRFLPATKAQPKEMLPIVDKPAIQYIVEEAAESGIEDILIITGRNKRSIEDHFDRSAELEFNLREKGKTETLKEMQQIADLANIHYIRQKEPLGLGHAVLCAEHFIGDEPFAVLLGDDIMVSETPALRQLMDVYDVYGTEVVGVQSVLPEDVSKYGIINTSGSQGHVYEVNDLVEKPSPEEAPSEIAVMGRYVLNSSIFSVLKTIGRGAGNEIQLTDALREVCRKEPIHARLLEGNRYDIGDKLGCFKASTEIGLMRPEMRSQLLAYLEDVIKRETKEMLR
notes: full-length, C-terminal His-tag kept (pET28b-yngB-cHis), E. coli BL21(DE3); native (Met) protein in kinetics; dimer in crystal

Key:
purified protein [1] = substrate: O=c1ccn([C@@H]2O[C@H](COP(=O)(O)OP(=O)(O)OP(=O)(O)O)[C@@H](O)[C@H]2O)c(=O)[nH]1; assay: purified protein; assay type: biochemical, Bacillus subtilis; conditions: 200 μM Glc-1-P, MgCl2 10 mg/ml (so in the source), 50 mM Tris pH 7.5, 500 mM NaCl, 5% glycerol, RT
purified protein [2] = substrate: O=P(O)(O)O[C@H]1O[C@H](CO)[C@@H](O)[C@H](O)[C@H]1O; assay: purified protein; assay type: biochemical, Bacillus subtilis; conditions: 200 μM UTP, MgCl2 10 mg/ml (so in the source), 50 mM Tris pH 7.5, 500 mM NaCl, 5% glycerol, RT

Protein | Km (purified protein [1]) [µM] | kcat (purified protein [1]) [s⁻¹] | Km (purified protein [2]) [µM] | kcat (purified protein [2]) [s⁻¹]
B1 | 49.5 ± 10.2 | 1.04 | 45.6 ± 3.24 | 1.06
B2 | 62.9 ± 13.8 | 0.293 | 42.1 ± 20.2 | 0.264

Source: paper PMC7961091, “Bacillus subtilis YngB contributes to wall teichoic acid glucosylation and glycolipid formation during anaerobic growth” (The Journal of Biological Chemistry, 2021)
